Values quoted from earlier work as cited in paper PMC9179313.
“And” between values parts separate entries of the source, which are not always exact repeats. Identical values can stand only once.

Molecular target: ICAM1 (Homo sapiens) (UniProt P05362)
Sequence (P05362 28-480): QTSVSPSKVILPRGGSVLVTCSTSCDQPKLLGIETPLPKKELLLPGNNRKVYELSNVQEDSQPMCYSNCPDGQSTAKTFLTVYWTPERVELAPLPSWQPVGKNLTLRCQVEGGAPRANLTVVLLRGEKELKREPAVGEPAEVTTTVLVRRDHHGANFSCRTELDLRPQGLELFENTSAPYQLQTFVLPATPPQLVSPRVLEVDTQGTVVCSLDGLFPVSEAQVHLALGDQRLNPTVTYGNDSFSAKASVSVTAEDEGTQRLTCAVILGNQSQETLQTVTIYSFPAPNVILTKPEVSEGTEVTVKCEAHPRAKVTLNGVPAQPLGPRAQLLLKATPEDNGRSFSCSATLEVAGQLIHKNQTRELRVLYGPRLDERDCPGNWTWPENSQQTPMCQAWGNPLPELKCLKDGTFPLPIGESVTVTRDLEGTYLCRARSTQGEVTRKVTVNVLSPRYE

Chain of LFA1 (integrin alpha-L beta-2) (P20701 26-1090): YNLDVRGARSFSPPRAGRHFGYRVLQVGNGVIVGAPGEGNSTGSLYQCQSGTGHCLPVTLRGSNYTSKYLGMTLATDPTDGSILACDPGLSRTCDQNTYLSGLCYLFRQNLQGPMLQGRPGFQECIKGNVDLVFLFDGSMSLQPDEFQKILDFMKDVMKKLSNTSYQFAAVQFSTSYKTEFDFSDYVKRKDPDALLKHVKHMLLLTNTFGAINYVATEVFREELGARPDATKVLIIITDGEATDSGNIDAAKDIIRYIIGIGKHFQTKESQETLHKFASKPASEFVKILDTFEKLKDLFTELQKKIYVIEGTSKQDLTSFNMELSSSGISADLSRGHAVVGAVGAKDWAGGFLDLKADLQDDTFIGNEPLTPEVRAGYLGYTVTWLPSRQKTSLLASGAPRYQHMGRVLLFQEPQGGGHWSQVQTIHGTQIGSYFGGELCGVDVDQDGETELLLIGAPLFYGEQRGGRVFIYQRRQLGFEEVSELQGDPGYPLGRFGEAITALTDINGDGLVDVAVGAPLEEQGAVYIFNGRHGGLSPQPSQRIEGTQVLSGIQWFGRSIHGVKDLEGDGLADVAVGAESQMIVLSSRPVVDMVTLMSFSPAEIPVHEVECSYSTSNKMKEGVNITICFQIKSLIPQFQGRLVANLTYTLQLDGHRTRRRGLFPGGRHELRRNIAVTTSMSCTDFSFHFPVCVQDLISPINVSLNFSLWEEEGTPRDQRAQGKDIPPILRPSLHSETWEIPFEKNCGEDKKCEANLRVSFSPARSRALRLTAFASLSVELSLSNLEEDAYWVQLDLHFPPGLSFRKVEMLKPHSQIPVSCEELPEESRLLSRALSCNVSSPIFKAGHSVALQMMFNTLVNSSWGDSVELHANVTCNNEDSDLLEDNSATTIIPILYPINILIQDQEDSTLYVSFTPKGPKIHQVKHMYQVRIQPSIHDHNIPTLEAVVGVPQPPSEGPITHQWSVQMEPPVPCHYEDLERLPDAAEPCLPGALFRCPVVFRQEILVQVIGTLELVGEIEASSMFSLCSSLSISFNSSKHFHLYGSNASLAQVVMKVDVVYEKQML
Chain of LFA1 (integrin alpha-L beta-2) (P05107 23-700, further chain): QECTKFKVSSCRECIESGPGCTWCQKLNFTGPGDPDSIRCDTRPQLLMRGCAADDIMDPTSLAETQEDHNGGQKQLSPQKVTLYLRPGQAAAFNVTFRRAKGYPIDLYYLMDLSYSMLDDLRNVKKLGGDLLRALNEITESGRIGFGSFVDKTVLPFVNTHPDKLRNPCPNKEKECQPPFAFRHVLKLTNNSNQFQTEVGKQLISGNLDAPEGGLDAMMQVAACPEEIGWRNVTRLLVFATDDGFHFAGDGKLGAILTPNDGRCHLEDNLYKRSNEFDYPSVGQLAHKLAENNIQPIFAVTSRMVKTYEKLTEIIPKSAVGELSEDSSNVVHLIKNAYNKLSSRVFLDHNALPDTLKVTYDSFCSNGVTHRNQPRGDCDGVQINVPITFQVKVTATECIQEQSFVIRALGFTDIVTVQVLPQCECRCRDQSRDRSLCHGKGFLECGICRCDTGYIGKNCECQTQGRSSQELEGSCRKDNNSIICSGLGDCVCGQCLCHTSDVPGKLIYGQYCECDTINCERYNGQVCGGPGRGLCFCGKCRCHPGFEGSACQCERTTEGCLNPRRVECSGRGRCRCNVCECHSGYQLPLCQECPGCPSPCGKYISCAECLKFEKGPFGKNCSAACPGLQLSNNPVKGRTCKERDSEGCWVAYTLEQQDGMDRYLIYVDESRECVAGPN

Substance: LFA1 (integrin alpha-L beta-2) (from UniProt P20701)
- Kd: 26 µM and 36 µM
